Data: article PMC5076530

Key:
[1] = biological target: human insulin receptor isoform A (human); test: radioligand binding; competition with human 125I-insulin on IR-A in membranes of human IM-9 lymphocytes; non-linear regression, one-site fit, depletion of free ligand taken into account; Kd of 125I-insulin set to 0.3 nM
[2] = biological target: human insulin receptor isoform B (human); test: radioligand binding; human IR-B in membranes of mouse embryonic fibroblasts (IGF-I receptor knock-out, solely expressing human IR-B); non-linear regression, one-site fit, depletion of free ligand taken into account
[3] = biological target: human insulin-like growth factor type I receptor (human); test: radioligand binding; competition with human 125I-IGF-I on human IGF-1R in membranes of mouse embryonic fibroblasts (IGF-1R knock-out, transfected with human IGF-1R); non-linear regression, one-site fit; Kd of 125I-IGF-I set to 0.2 nM

Substance: IGF-II (recombinant, with an additional glycine at the N terminus) (ligand)
- Kd [1]: 3.03 nM
- Kd [2]: 43.7 nM
- Kd [3]: 2.29 nM

Substance: [N29,R34_GS,S39_PQ]IGF-II (ligand)
- Kd [1]: 19.9 nM
- Kd [3]: 3.19 nM

Substance: [N29,S39_PQ]IGF-II (ligand)
- Kd [1]: 16.8 nM
- Kd [3]: 1.33 nM

Substance: [N29]IGF-II (ligand)
- Kd [1]: 10.3 nM
- Kd [2]: 108 nM
- Kd [3]: 4.57 nM

Substance: [R34_GS,S39_PQ]IGF-II (ligand)
- Kd [1]: 23.4 nM
- Kd [3]: 5.68 nM

Substance: [R34_GS]IGF-II (ligand)
- Kd [1]: 15.4 nM
- Kd [3]: 4.13 nM

Substance: [S39_PQ]IGF-II (ligand)
- Kd [1]: 38 nM
- Kd [3]: 5 nM
